Experimental data from the DeepSol protein solubility set.

Assay: soluble on expression in E. coli; label from the status in PepcDB or PDB records

Sequence | soluble on expression in E. coli
MFSVFEWILIFFGILNWFKFTQPSTPEPASRFFTRVCQQLRETVLIEIDSSGRVQPFVSIVEEGSKPYFSPHVGCAECMQWWDVYGEQPHRVEETEDQDTDEGVEEESEIEDSDFDDQITFVKPTTPAPLSPETENFIEDKMKFHFQATDIINEYLGKGTDMGIVSNLIRISQTYGVQLKQVSSGKSSMKEIEGILKSLQKEFEQEIEGLNGEISEAEENNESDIDESFEFVENLELDSDFE | not soluble
MKIIKGAFPVLITPMDEFQEINWNGVKQNVNYFIEQKVAGIIINGSTGEFVSLSKEERFKMVETVLKEVNGRIPVIVGTAAETTKETIEFTKHAETHGADCALIINSYYCKPKEEEIYFHFKEISNAVNIPIMLYNNPFTSGVDMSTELMLRIGKDCENVTHIKESSGDIRKARDLVRQGEGAFQVFCGSEDLVMESYLVGATGWVSVAGNVVPGLVTKMYEHFQNGELEKAWEINDAILPLCEFLEGSGKYVQIVKRSMELQGQAGGPSRYPRLGLTEEEDQKLQAIISKIAAHAAV | not soluble
MPNTPHTMNLYIKNIAQLVTCQGSEAKHGREAMGQIHTIEGPAAVVIRDGIIAFAGRMADVAPSMTEGCRELDATGRCVLPGFVDSHTHLVFGGYREDEFQWRLAGDSYMSIMERGGGIASTMRATRSESEDELKASARRHLSNMMKMGVTTVEAKSGYGMNLETELKQLRVVRDLQDEQPLDLYSTFMGAHDTAPEYKGRPTEFIEYLCREVLPEVVRQNLAECCDIFTEKGVFDHEQTRRMLTAAKEAGLSVKMHADEIVPFGGAELAAELGCLSADHLLRISDAGIKALAESNTVATLLPCTAFSLRADYAPARKMIDAGCAVALGSDLNPGSCFSASVPLMFALATLYMGMTVEEAITALTINGAAAIGRADTIGSIEPGKKGDLVVLQYPSYKFLSYHFGMNLVEHTVKGGRVVYTNS | not soluble
MSLQARVAAPVVAKEREELVDRIEGETSAADELEKSVDELRDDVDARRREALEKSGDGDRSDLVGILSGAVEVHGPGVKLVVNDAKDVATGADGQPRGTSGFSDTGRVRDRDMQRVVNGLWESGAEAISVNGQRLTALSAIRAAGDAILVDNRPLVPPYTVLAVGDGERLSRGFQDSADGLYLHALEESYGIRTAISVADDLKLPAAPSVIVRTAQPITEKGTSEGHHHHHH | soluble
MQMPRRFNTYCPHCNEHQEHEVEKVRSGRQTGMKWIDRQRERNSGIGNDGKFSKVPGGDKPTKKTDLKYRCGECGKAHLREGWRAGRLEFQE | soluble
MENSDDIRLIVKIAQLYYEQDMTQAQIARELGIYRTTISRLLKRGREQGIVTIAINYDYNENLWLEQQLKQKFGLKEAVVASSDGLLEEEQLSAMGQHGALLVDRLLEPGDIIGFSWGRAVRSLVENLPQRSQSRQVICVPIIGGPSGKLESRYHVNTLTYGAAARLKAESHLADFPALLDNPLIRNGIMQSQHFKTISSYWDSLDVALVGIGSPAIRDGANWHAFYGSEESDDLNARHVAGDICSRFYDINGGLVDTNMSEKTLSIEMAKLRQARYSIGIAMGEEKYSGILGALHGRYINCLVTNRETAELLLK | soluble
MSLDFSHEFFGSLDPQALAHPDSIKWQHYGEGVIPMWIADMDFPVAPPILRALEDRLTRGLGYPLGRDDRLIADLQTKWASQGLTDVPADGIHFTPSVVPGLYAGVHGLTEPGDRVVTMTPIYHPFHLAINDLGREVAAAPLREGDTRWEIDWDALERAAEGARLLMLCHPHNPCGRVWDADELARLRELVLAHDLYVISDELHADLRFTDAPFEAFAADPRVRDRTLTVTGPCKAFNTAGLGIGVMVTHDPELLARVQRRVAGLGGHPSALSFTMWRVALEDGGPWLARTVEYLRGNRDFMTAFLRERLPWVRFTVPEATYLAWLDLREHPEAGRIQEFLLEEAKVAVHNGPTFAPGEQGAAYQGFIRVNFATSRAILTEALERMARALDTRQEGHHHHHH | not soluble
GMADIDQASKTEMEAAAFRHLLRHLDEHKDVQNIDLMIQADFCRNCLAKWLMEAATEQGVELDYDGAREYVYGMPFAEWKTLYQKPASEAQLAAFEAKQAARKR | soluble
